Reference: patent US6933284

Biological target: LDL receptor on normal human fibroblasts (human) (UniProt P01130)
Experiment: competition with 125I-labeled human plasma LDL (2 µg/ml) for LDL receptors on normal human fibroblasts, 3 h at 4 °C

| ED50 | Substance |
| --- | --- |
| > 20 µg/mL | R3500Q LDL (recombinant LDL, human apo-B100 with glutamine for arginine at residue 3500), P04114 28-4563 |
| > 20 µg/mL | RK3359-3369SA LDL (recombinant LDL, human apo-B100 with the arginines of Site B changed to serines and the lysines to alanines), P04114 28-4563 |
| 2.4 µg/mL | K3363E LDL (recombinant LDL, human apo-B100 with glutamic acid for lysine at residue 3363), P04114 28-4563 |
| 2.3 µg/mL | recombinant control LDL (human apo-B100 with leucine in place of glutamine at position 2153), P04114 28-4563 |
